According to patent US20220396813:

Tests used:
Assay in all cases: cell_activity
[1] = tested on: T1, Rec22 WP_016392893.1 (Pseudomonas plecoglossicida); conditions: HEK293T inversion; background 1.66
T1 sequence: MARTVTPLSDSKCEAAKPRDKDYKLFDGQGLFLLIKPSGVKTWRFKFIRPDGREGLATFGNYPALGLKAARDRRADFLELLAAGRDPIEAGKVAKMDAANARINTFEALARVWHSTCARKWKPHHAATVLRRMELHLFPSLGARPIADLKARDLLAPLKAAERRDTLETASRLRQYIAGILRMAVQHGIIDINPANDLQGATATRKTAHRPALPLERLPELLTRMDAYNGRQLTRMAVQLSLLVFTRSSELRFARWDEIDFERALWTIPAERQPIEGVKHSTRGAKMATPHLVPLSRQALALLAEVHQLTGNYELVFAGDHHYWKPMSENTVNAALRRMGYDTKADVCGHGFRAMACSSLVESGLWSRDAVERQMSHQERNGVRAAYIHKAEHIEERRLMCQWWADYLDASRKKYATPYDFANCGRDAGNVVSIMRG

[2] = tested on: T2, Rec24 WP_046407494.1 (Sphingomonas sp.); conditions: HEK293T inversion; background 2.34
T2 sequence: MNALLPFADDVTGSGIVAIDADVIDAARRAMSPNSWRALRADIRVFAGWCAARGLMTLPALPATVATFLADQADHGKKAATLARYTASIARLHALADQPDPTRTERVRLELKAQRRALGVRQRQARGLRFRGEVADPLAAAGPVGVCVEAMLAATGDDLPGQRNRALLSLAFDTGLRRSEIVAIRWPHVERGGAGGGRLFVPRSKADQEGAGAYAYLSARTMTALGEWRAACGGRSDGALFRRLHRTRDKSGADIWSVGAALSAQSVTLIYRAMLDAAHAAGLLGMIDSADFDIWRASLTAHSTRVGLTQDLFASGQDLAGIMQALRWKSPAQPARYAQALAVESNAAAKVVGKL

[3] = tested on: T3, Rec21 WP_010365336.1 (Pseudoalteromonas citrea); conditions: HEK293T inversion; background 4.91
T3 sequence: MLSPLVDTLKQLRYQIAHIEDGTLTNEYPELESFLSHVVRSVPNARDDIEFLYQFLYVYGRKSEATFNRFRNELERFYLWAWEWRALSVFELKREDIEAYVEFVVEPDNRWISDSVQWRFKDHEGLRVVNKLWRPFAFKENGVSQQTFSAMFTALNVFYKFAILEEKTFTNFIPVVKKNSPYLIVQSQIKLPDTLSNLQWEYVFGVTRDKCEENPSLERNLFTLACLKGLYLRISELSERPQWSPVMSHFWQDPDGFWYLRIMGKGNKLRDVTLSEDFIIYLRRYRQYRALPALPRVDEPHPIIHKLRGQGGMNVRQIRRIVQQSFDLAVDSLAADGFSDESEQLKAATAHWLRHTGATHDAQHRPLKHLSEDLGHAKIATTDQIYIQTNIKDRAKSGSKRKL

[4] = tested on: T4, Rec18 WP_007635552.1 (Paraglaciecola psychrophila); conditions: HEK293T inversion; background 1.255
T4 sequence: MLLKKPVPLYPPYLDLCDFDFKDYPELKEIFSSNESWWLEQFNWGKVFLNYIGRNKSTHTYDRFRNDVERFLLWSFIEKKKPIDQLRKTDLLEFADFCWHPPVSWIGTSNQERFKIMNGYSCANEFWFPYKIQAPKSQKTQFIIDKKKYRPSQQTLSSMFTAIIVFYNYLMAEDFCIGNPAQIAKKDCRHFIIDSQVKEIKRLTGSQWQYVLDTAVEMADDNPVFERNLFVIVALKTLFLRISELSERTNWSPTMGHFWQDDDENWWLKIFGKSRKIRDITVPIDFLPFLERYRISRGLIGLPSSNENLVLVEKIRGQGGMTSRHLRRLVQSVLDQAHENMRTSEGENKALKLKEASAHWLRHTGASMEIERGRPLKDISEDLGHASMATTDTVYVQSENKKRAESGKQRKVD

With “GACCACTCCAGANNNNNNNNNTCTGGAGTGGTG (double strand) [Rec22 natural site]” as the sequence, how does the activity [1] read?
Its activity is 1.45 % GFP+.

Which activity [2] does the source give for “GCACTAGCGATANNNNNNNNTATCACTAGTGC (double strand) [Rec24 natural site]” here?
Its activity is 17.1 % GFP+.

Which activity [3] does the source give for “TAATGTCCAATANNNNNNNNTATCGGACATAA (double strand) [Rec21 natural site]” here?
The activity was 4.75 % GFP+.

Which activity [4] does the source give for “TTATGTCCAATANNNNNNNNTATTGGACATAG (double strand) [Rec17-18 natural site]” here?
The activity was 0.202 % GFP+.
